The text below walks through data of patent US20030113828A1, “Compositions and methods for modulating Syk function” (priority 2001, published 2003).

Like-named read-outs stand apart in the source and are kept apart here. Square brackets hold non-standard residues; d marks the D form. Ends that are not written are not given here. Peptide text beside a SMILES is read from it. pY = N[C@@H](Cc1ccc(OP(=O)(O)O)cc1)C(=O)O

Assay [1] concerns the target T1, integrin β3 cytoplasmic tail (Homo sapiens, UniProt P05106).
T1 construct: made in house
T1 sequence (P05106 742-788 limits assumed): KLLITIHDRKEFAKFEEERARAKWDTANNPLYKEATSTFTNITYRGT
Briefly: Affinity chromatography/direct binding of kinase fragments to integrin tail. As to conditions: recombinant fragments, direct binding assay. The protocol:
(§1) Following incubation, beads were washed and bound protein was analyzed by immunoblotting.
(§2) For direct binding assays, model peptides (1 mg) were dissolved in 1 ml buffer containing 20 mM Tris (pH 7.9), 500 mM NaCl, and 6 M urea. To this, 50 ul packed His-Bind® Resin (Novagen, Madison, Wis.) was added and the mixture was rotated for 1 hour at room temperature. Immobilized peptides were washed 5× in above buffer without urea, and resuspended in 500 μl buffer containing 20 mM PIPES pH 6.8, 50 mM NaCl, 3 mM MgCl2, 150 mM sucrose, 50 mM NaF, 40 mM Na4P2O7*10H2O (buffer A) supplemented with 0.1% TritonX-100 and 3 mM MgCl2. Purified GST-fusion proteins were added to 0.5 ml buffer A supplemented with 0.1% TritonX-100 and 3 mM MgCl2. Five μl of total packed resin loaded with various integrin cytoplasmic domain model proteins was added to the GST-fusion protein. The mixture was incubated for 40 minutes at room temperature with continuous rotation. The beads were then washed five times in buffer A with 0.1% TritonX-100 and 3 mM MgCl2. Bound proteins were eluted by boiling in reducing sample buffer, fractionated by SDS PAGE, and immuno-blotted.

The target of assay [2] is T2, Syk (Homo sapiens, UniProt P43405). Briefly: Affinity chromatography/direct binding of integrin tail model proteins to Syk. On the set-up: made in house; host or cells: bacteria (pGEX vector, IPTG induction). The procedure:
(§3) Model protein mimics of integrin cytoplasmic domains αIIb, β1A, and β3 were prepared in accordance with procedures described by Pfaff et al. (1998) J Biol Chem 273:6104-6109). The β2 integrin cytoplasmic domain model protein was developed by PCR amplification of β2 cDNA using 5′-[…] (SEQ ID NO:7) and 3′-[…] (SEQ ID NO:8) primers. This primer set introduced a 5′ HindIII restriction site into the N-terminal region of the β2 cytoplasmic domain, resulting in the mutation, A725L. The 3′ primer contained a BamHI restriction site immediately downstream of dual stop codons. The PCR product was cloned into pCR2.1 as described in the TA Cloning® system (Invitrogen, Carlsbad, Calif.). After sequencing, pCR2.1-β2cyt was digested with BamHI and HindIII, and subcloned into a modified bacterial expression plasmid pET15bm (lacking the HindIII restriction site). All model proteins were verified by sequence analysis, expressed, HPLC purified and verified by electrospray ionization mass spectroscopy as described by Pfaff et al. ((1998) J Biol Chem 273:6104-6109).
as §1, §2

In assay [3] the test system is Zap-70. Briefly: Affinity chromatography/direct binding of integrin tail model proteins to Zap-70. As to conditions: Zap-70 from cell lysates. On the set-up: species or system human. The protocol: (§4) A cDNA encoding residues 1-337 of human Zap-70 was cloned into pGEX-2T (Amersham Pharmacia Biotech).
as §3, §1
as §2, with “The beads were then washed five times in buffer A with 0.1% TritonX-100 and 3 mM MgCl2. Bound proteins were eluted by boiling in reducing sample buffer, fractionated by SDS PAGE, and immuno-blotted.” left out

In assay [4] the target is T3, binding of Syk(6-370) to the β3 tail (Homo sapiens, UniProt P43405).
T3 construct: made in house; host or cells: bacteria (pGEX vector, IPTG induction)
Briefly: pITAM peptide competition in direct binding assay. As to conditions: soluble pITAM peptide 40 μM, 8000-fold molar excess. The procedure:
To verify that the Syk-β3 interaction is pITAM-independent mechanism, the effect of 8000-fold molar excess of PITAM peptides on binding of Syk(6-370) to the β3 tail was examined. […] Similar data were obtained in a quantitative enzyme-linked immunosorbent assay. The FcεRIγ pITAM peptides were functional, as they activated Syk kinase (EC50 1-2 μM) in vitro (Shiue et al.(1995) J Biol Chem 270:10498-10502). Thus, Syk recognition of β3 involves a unique specificity, distinct from Syk's interaction with pITAMs.
as §1

The target in assay [5] is T2, Syk. Briefly: Syk kinase activation in vitro. The format is biochemical.
In assay [6] the target is Syk(6-370) (Homo sapiens, UniProt P43405). As to conditions: Ottinger et al. 1998, cited from earlier work.
Assay [7] deals with T4, Syk binding to the β3 tail model proteins (Homo sapiens, UniProt P43405).
T4 construct: made in house; host or cells: bacteria (pGEX vector, IPTG induction)
The assay is described as follows: β3 peptide competition in direct binding assay. As to conditions: peptide 1×10^−4 M, Syk 5×10^−9 M. The protocol: Phosphorylation of the β3 integrin cytoplasmic domain occurs as a consequence of integrin engagement (Law et al. (1996) J Biol Chem 271:10811-10815). To determine if phosphorylation of the β3 cytoplasmic domain could affect Syk binding, competition assays were performed using tyrosine phosphorylated or non-phosphorylated peptides in the context of the last 23 amino acids of the β3 cytoplasmic domain. Peptides were used at a concentration 1×10^−4 M, and Syk was used at a concentration of 5×10^−9 M. The non-phosphorylated peptide competed for integrin β3 tail binding to Syk. In three experiments, there was a 52±3.4% decrease in Syk binding to the β3 tail model proteins in the presence of non-phosphorylated β3-23 peptide as compared to the phosphorylated peptide (β3-23P). […] Furthermore, phosphorylation of β3(Y747,759) reduces its capacity to compete for Syk binding to the unphosphorylated β3 tail.
as §2, with “The beads were then washed five times in buffer A with 0.1% TritonX-100 and 3 mM MgCl2. Bound proteins were eluted by boiling in reducing sample buffer, fractionated by SDS PAGE, and immuno-blotted.” left out
For peptide competition assays, peptides were pre-incubated with Syk(6-370) for one hour before direct binding assays were performed. Peptides were used at a concentration of 1×10^−4 M, and Syk(6-370) was used at a concentration of 2×10^−9 M. Bound Syk was detected as described above. […]

The target in assay [8] is T5, Zap-70 (Homo sapiens, UniProt P43403).
T5 construct: A cDNA encoding residues 1-337 of human Zap-70 was cloned into pGEX-2T; made in house; host or cells: bacteria (pGEX-2T, IPTG induction)
T5 sequence (P43403 1-337): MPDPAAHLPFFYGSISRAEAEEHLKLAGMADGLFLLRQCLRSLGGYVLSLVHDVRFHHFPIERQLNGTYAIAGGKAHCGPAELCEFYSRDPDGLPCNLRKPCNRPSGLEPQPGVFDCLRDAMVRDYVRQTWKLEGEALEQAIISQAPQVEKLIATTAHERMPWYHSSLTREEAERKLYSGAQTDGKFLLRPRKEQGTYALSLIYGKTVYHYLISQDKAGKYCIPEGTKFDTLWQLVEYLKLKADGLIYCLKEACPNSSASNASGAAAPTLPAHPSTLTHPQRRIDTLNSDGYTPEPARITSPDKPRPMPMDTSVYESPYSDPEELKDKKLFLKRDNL
The assay is described as follows: Affinity chromatography/direct binding of integrin tail model proteins to Zap-70. As to conditions: recombinant fragment, direct binding. The protocol:
as §4, §3, §1
as §2, with “The beads were then washed five times in buffer A with 0.1% TritonX-100 and 3 mM MgCl2. Bound proteins were eluted by boiling in reducing sample buffer, fractionated by SDS PAGE, and immuno-blotted.” left out

Where [9] appears, read: recombinant fragment, direct binding.

On to “Syk(R195A): C-terminal SH2 domain mutant of Syk deficient in binding to pITAMs”, for which the “binding to the β3 tail” value in assay [1] was “bound”.

In the case of “β3: recombinant model protein mimic of dimerized integrin β3 cytoplasmic tail (KLLITIHDRKEFAKFEEERARAKWDTANNPLYKEATSTFTNITYRGT; also: dimerised via Fc or GST (left off))”, the “binding of Syk to integrin tail model protein” value (“binding of Syk” below) in assay [2] (Syk from cell lysates) was “bound”. In addition, the “binding of Zap-70 to integrin tail model protein” value in assay [3] is recorded as “bound”.

With “NQLY(PO3)NELNLGRREEY(PO3)DVLV (SEQ ID NO:2) (NQL[pY]NELNLGRREE[pY]DVLV) [dually-phosphorylated TCRξ chain ITAM peptide]”, in assay [4], the “competition with the β3 integrin cytoplasmic tail for binding to Syk(6-370)” value is listed as “failed to compete”.

Take “Zap-70(1-162): N-terminal SH2 domain of Zap-70 with its intact IA domain”: the “binding to the β3 tail” value in assay [1] is on record as “bound β3 to a similar extent as the tandem SH2 domains”.

As to `CC(C)C[C@H](NC(=O)CNC(=O)[C@@H](NC(=O)[C@H](Cc1ccc(OP(=O)(O)O)cc1)NC(=O)[C@@H](NC(=O)CNC(=O)[C@@H](N)CC(=O)O)C(C)C)[C@@H](C)O)C(=O)N[C@@H](CO)C(=O)N[C@H](C(=O)N[C@@H](CCCNC(=N)N)C(=O)N[C@@H](CC(N)=O)C(=O)N[C@@H](CCC(N)=O)C(=O)N[C@@H](CCC(=O)O)C(=O)N[C@H](C(=O)N[C@@H](Cc1ccc(OP(=O)(O)O)cc1)C(=O)N[C@@H](CCC(=O)O)C(=O)N[C@H](C(=O)N[C@@H](CC(C)C)C(=O)N[C@@H](CCCCN)C(=O)N[C@H](C(=O)N[C@@H](CS)C(=O)N[C@@H](CCCNC(=N)N)C(=O)O)[C@@H](C)O)[C@@H](C)O)[C@@H](C)O)[C@@H](C)O` [FcεRIγ ITAM peptide, DGVY(PO3)TGLSTRNQETY(PO3)ETLKTCR (SEQ ID NO:1)] (H-DGV[pY]TGLSTRNQET[pY]ETLKTCR-OH), in assay [5], the EC50 lay within 1000 to 2000 nM. Moreover, the Kd was 2.6 nM in assay [6] (read-out: affinity of Syk for the dually phosphorylated FcεRIγ-ITAM); 2.6 nM in assay [6] (reported, read-out: Kd for the interaction between Syk(6-370) and the FcεRIγ pITAM peptide).

“β3-23 peptide: non-phosphorylated peptide of the last 23 amino acids of the β3 cytoplasmic domain (DTANNPLYKEATSTFTNITYRGT)”: the “competition for integrin β3 tail binding to Syk” value in assay [7] was “competed”. In assay [7] (three experiments, compared to the phosphorylated peptide (β3-23P)), the “decrease in Syk binding to the β3 tail model proteins” value worked out at 52±3.4%.

Consider “Syk(163-270): Syk fragment containing only the C-terminal SH2 domain”, for which the “binding to the β3 tail” value in assay [1] is recorded as “failed to bind”.

As to “β3(759X): β3 tail with deletion of the last 4 C-terminal residues (KLLITIHDRKEFAKFEEERARAKWDTANNPLYKEATSTFTNIT; not fully specified)”, the “binding of Syk” value in assay [2] (setting [9]) is given as “abolished”.

Take “tandem SH2 domains of SHP-2: tandem SH2 domains of SHP-2”: the “binding to the β3 tail” value in assay [1] is reported as “did not bind”.

In the case of “β3752X: β3 tail with removal of 11 C-terminal residues Thr752-Thr762 (KLLITIHDRKEFAKFEEERARAKWDTANNPLYKEAT; not fully specified)”, the “binding of Syk” value in assay [2] (setting [9]) was “abolished”.

Turning to “β3-23P: tyrosine phosphorylated peptide of the last 23 amino acids of the β3 cytoplasmic domain (DTANNPLYKEATSTFTNITYRGT; also: tyrosine phosphorylated, site not given here) [reference compound]”, the “competition for integrin β3 tail binding to Syk” value in assay [7] was “did not detectably compete”.

As to “αIIb tail: αIIb integrin cytoplasmic tail model protein (KVGFFKRNRPPLEEDDEEGE; not fully specified)”, the “binding of Syk” value in assay [2] (Syk from cell lysates) is “no detectable binding”; in assay [2] (setting [9]) it was “No binding was detected”. In addition, the entries for the “binding of Zap-70 to integrin tail model protein” value in assay [8] and in assay [3] were “No binding was detected” and “no detectable binding”, respectively.

The term EC50 denotes the concentration needed to bring the measured effect to its halfway point.
